B1: Phage-1233 (peptide)
peptide: YCDGHEERYMAKCL
modifications: cysteine pairing not given here; also: displayed on phage by fusion to pIII, linker and pIII sequence not given here
notes: Tested as clonal phage supernatant
B2: Phage-1232 (peptide)
peptide: YCEGHDIRYMMKCL
modifications: cysteine pairing not given here; also: displayed on phage by fusion to pIII, linker and pIII sequence not given here
notes: as for B1
B3: Phage-1243 (peptide)
peptide: YCVGHSPEYIWKCL
B4: Phage-1244 (peptide)
peptide: YCDGHELMYMEKCL
B5: Phage-1235 (peptide)
peptide: YCDGHIPQYVEKCL
B6: Phage-1246 (peptide)
peptide: YCDGHIKEYMSKCL
B7: Phage-1236 (peptide)
peptide: YCAGHAEIYMQKCL
B8: Phage-1241 (peptide)
peptide: YCDGHSFEYMAKCL
B9: Phage-1239 (peptide)
peptide: YCEGHTQAYLAKCL
B10: Phage-1238 (peptide)
peptide: YCDGHHAEYMWKCL
B11: Phage-1240 (peptide)
peptide: YCAGHSAQYMWKCL
B12: Phage-1237 (peptide)
peptide: YCEGHAHEYMEKCV
B13: Phage-1242 (peptide)
peptide: YCDGHSAEYLGKCL
B14: Phage-1234 (peptide)
peptide: YCSGHVPEYMEKCL
B15: Phage-1245 (peptide)
peptide: YCAGHLEMYMSKCL
B16: Phage-1268 (peptide)
peptide: YCDGHSMEYMAKCL
notes: also called Peptide-87 library clone
B17: Phage-1267 (peptide)
peptide: YCEGHAREYMDKCL
notes: as for B16
B18: Phage-1265 (peptide)
peptide: YCEGHLPMYMQKCM
notes: as for B16
B19: Phage-1266 (peptide)
peptide: YCDGHSGEYMSKCL
notes: as for B16
B20: Phage-1262 (peptide)
peptide: YCDGHSMTYMAKCI
notes: as for B16
B21: Phage-1269 (peptide)
peptide: YCDGHSPQYLWKCL
notes: as for B16
B22: Phage-1260 (peptide)
peptide: YCAGHSLQYLGKCY
notes: as for B16
B23: Phage-1263 (peptide)
peptide: YCDGHKWEYLQKCL
notes: as for B16
B24: Phage-1261 (peptide)
peptide: YCAGHAAIYMAKCL
notes: as for B16
B25: Phage-1264 (peptide)
peptide: YCDGHDPQYIRKCI
notes: as for B16
B26: Phage-1253 (peptide)
peptide: YCDGHSTLYMQKCL
notes: as for B1
B27: Phage-1252 (peptide)
peptide: YCEGHLAAYMYKCL
notes: as for B1
B28: Phage-1249 (peptide)
peptide: YCEGHSQEYKAKCF
notes: as for B1
B29: Phage-1247 (peptide)
peptide: YCDGHLLMYMEKCL
notes: as for B1
B30: Phage-1256 (peptide)
peptide: YCDGHFTWYMAKCL
notes: as for B1
B31: Phage-1254 (peptide)
peptide: YCDGHTEAYMSKCL
notes: as for B1
B32: Phage-1251 (peptide)
peptide: YCEGHSSAYMAKCL
notes: as for B1
B33: Phage-1255 (peptide)
peptide: YCEGHISEYMGKCL
notes: as for B1
B34: Phage-1259 (peptide)
peptide: YCDGHTAQYMWKCL
notes: as for B1
B35: Phage-1257 (peptide)
peptide: YCDGHIAEYRSKCL
notes: as for B1
B36: Phage-1258 (peptide)
peptide: YCEGHLSEYIGKCL
notes: as for B1
B37: Phage-1248 (peptide)
peptide: YCEGHDWMYMEKCL
notes: as for B1
B38: Phage-1250 (peptide)
peptide: YCDGHVLMYLAKCL
notes: as for B1

Here are results for 38 molecules from patent US20260242478A1 (published 2026).

Where no end group is shown, it is not given here.

One assay has as its target T1, Anti-CD28 Fab (SEQ ID NOs: 696, 697).
T1 construct: In the phage ELISA the Fab was biotinylated and captured on neutravidin coated plates
Briefly: phage binding ELISA; clonal phage on plate-captured biotinylated anti-CD28 Fab, anti-M13 HRP detection. For orientation: An ELISA detects its analyte on a solid surface through an enzyme-linked reagent.
T1 sequence (VH, as listed by the source, chain 1 of 2): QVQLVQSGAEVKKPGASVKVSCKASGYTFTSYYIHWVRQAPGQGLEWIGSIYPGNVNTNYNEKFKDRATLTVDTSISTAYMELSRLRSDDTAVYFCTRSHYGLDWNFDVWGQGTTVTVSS
T1 sequence (VL, as listed by the source, chain 2 of 2): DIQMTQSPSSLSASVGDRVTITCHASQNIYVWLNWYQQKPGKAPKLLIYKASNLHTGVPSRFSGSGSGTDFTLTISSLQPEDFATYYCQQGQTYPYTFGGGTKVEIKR
Experimental: (§1) After panning, phage infected bacteria were plated out and colonies picked into 96 well blocks. Clonal phage was then amplified and separated from bacterial cells via centrifugation.
(§2) Clonal phage were harvested as crude supematants and screened via standard ELISAs. […] Prior to the addition of clonal phage, wells were incubated with blocking buffer and CD28 antigen or blocking buffer alone. Without washing or aspirating, clonal phage supematants were then added to the wells and incubated for a short time. Wells were then washed followed by detection of bound phage using a horse radish conjugated anti-M13 antibody. Clonal phage of interest were then sent for sequence analysis.
Regarding B1, the “Anti-CD28 Fab signal (phage binding ELISA)” value was 0.94.

Consider B2, for which the “Anti-CD28 Fab signal (phage binding ELISA)” value amounted to 0.95.

For a further assay, the target named is T2, Anti-CD28 Fab (SEQ ID NOs: 696, 697).
T2 construct: Biotinylated and captured on neutravidin coated plates in the phage ELISA
Briefly: phage ELISA; Fab-coated wells first incubated with CD28 antigen (competitor), then clonal phage, anti-M13 HRP.
T2 sequence (VH, as listed by the source, chain 1 of 2): as the sequence (VH, as listed by the source, chain 1 of 2) above
T2 sequence (VL, as listed by the source, chain 2 of 2): as the sequence (VL, as listed by the source, chain 2 of 2) above
Experimental: as §1, §2
As to B3, the “Anti-CD28 Fab signal in the presence of CD28 (phage binding ELISA)” value came to 0.06.

On to B4, for which the “Anti-CD28 Fab signal in the presence of CD28 (phage binding ELISA)” value is 0.06.

As to B5, the “Anti-CD28 Fab signal in the presence of CD28 (phage binding ELISA)” value was found to be 0.08.

For the molecule B6, the “Anti-CD28 Fab signal in the presence of CD28 (phage binding ELISA)” value came to 0.08.

For B7, the “Anti-CD28 Fab signal in the presence of CD28 (phage binding ELISA)” value came out at 0.05.

As to B8, the “Anti-CD28 Fab signal in the presence of CD28 (phage binding ELISA)” value worked out at 0.06.

Consider B9, for which the “Anti-CD28 Fab signal in the presence of CD28 (phage binding ELISA)” value was found to be 0.1.

Turning to B10, the “Anti-CD28 Fab signal in the presence of CD28 (phage binding ELISA)” value was found to be 0.06.

Take B11: the “Anti-CD28 Fab signal in the presence of CD28 (phage binding ELISA)” value stood at 0.07.

Take B12: the “Anti-CD28 Fab signal in the presence of CD28 (phage binding ELISA)” value turned out to be 0.07.

On to B13, for which the “Anti-CD28 Fab signal in the presence of CD28 (phage binding ELISA)” value turned out to be 0.07.

For the molecule B14, the “Anti-CD28 Fab signal in the presence of CD28 (phage binding ELISA)” value stood at 0.06.

Turning to B15, the “Anti-CD28 Fab signal in the presence of CD28 (phage binding ELISA)” value is 0.07.

Another assay has the same target. Briefly: phage ELISA; biotinylated anti-CD28 Fab on neutravidin plate, clonal phage supernatant, anti-M13 HRP.
Target sequence in this assay (VH, as listed by the source, chain 1 of 2): as the sequence (VH, as listed by the source, chain 1 of 2) above
Target sequence in this assay (VL, as listed by the source, chain 2 of 2): as the sequence (VL, as listed by the source, chain 2 of 2) above
Experimental: as §1, §2
As for B3, the “Anti-CD28 Fab signal (phage binding ELISA)” value came to 0.92.

For the molecule B4, the “Anti-CD28 Fab signal (phage binding ELISA)” value was found to be 0.92.

For the molecule B5, the “Anti-CD28 Fab signal (phage binding ELISA)” value worked out at 0.94.

Take B6: the “Anti-CD28 Fab signal (phage binding ELISA)” value stood at 0.91.

Consider B7, for which the “Anti-CD28 Fab signal (phage binding ELISA)” value is 0.93.

Consider B8, for which the “Anti-CD28 Fab signal (phage binding ELISA)” value was 0.92.

With B9, the “Anti-CD28 Fab signal (phage binding ELISA)” value was found to be 0.93.

As for B10, the “Anti-CD28 Fab signal (phage binding ELISA)” value was 0.93.

As for B11, the “Anti-CD28 Fab signal (phage binding ELISA)” value was 0.92.

B12: the “Anti-CD28 Fab signal (phage binding ELISA)” value was 0.93.

In the case of B13, the “Anti-CD28 Fab signal (phage binding ELISA)” value is 0.92.

For B14, the “Anti-CD28 Fab signal (phage binding ELISA)” value was 0.94.

For B15, the “Anti-CD28 Fab signal (phage binding ELISA)” value was 0.91.

For another assay, the target named is Anti-CD28 Fab (SEQ ID NOs: 696, 697). Briefly: phage ELISA; biotinylated anti-CD28 Fab on neutravidin plate, clonal phage supernatant, anti-M13 HRP detection.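 Also: crude supernatants of single phage clones picked after panning were screened for binding.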
Target sequence in this assay (VH, as listed by the source, chain 1 of 2): as the sequence (VH, as listed by the source, chain 1 of 2) above
Target sequence in this assay (VL, as listed by the source, chain 2 of 2): as the sequence (VL, as listed by the source, chain 2 of 2) above
With B16, the “Phage binding ELISA, Anti-CD28 Fab signal” value worked out at 0.8.

Take B17: the “Phage binding ELISA, Anti-CD28 Fab signal” value came to 0.8.

For the molecule B18, the “Phage binding ELISA, Anti-CD28 Fab signal” value was found to be 0.82.

In the case of B19, the “Phage binding ELISA, Anti-CD28 Fab signal” value is 0.82.

B20: the “Phage binding ELISA, Anti-CD28 Fab signal” value was found to be 0.84.

For the molecule B21, the “Phage binding ELISA, Anti-CD28 Fab signal” value was found to be 0.8.

As to B22, the “Phage binding ELISA, Anti-CD28 Fab signal” value amounted to 0.86.

B23: the “Phage binding ELISA, Anti-CD28 Fab signal” value is 0.84.

Take B24: the “Phage binding ELISA, Anti-CD28 Fab signal” value came to 0.85.

As for B25, the “Phage binding ELISA, Anti-CD28 Fab signal” value was 0.83.

For another assay the target is unchanged. Briefly: phage binding ELISA; biotinylated Fab on neutravidin plate, clonal phage supernatant, anti-M13 HRP.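 Also: clones picked after panning, added to wells pre-incubated with CD28 antigen or with blocking buffer only, no wash before phage addition, bound phage read after washing.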
Target sequence in this assay (VH, as listed by the source, chain 1 of 2): as the sequence (VH, as listed by the source, chain 1 of 2) above
Target sequence in this assay (VL, as listed by the source, chain 2 of 2): as the sequence (VL, as listed by the source, chain 2 of 2) above
Experimental: as §1, §2
Regarding B26, the “Anti-CD28 Fab (SEQ ID NOs: 696, 697) signal” value was 0.88.

For the molecule B27, the “Anti-CD28 Fab (SEQ ID NOs: 696, 697) signal” value was found to be 0.89.

In the case of B28, the “Anti-CD28 Fab (SEQ ID NOs: 696, 697) signal” value was 0.9.

B29: the “Anti-CD28 Fab (SEQ ID NOs: 696, 697) signal” value was 0.91.

As to B30, the “Anti-CD28 Fab (SEQ ID NOs: 696, 697) signal” value was 0.87.

On to B31, for which the “Anti-CD28 Fab (SEQ ID NOs: 696, 697) signal” value amounted to 0.88.

B32: the “Anti-CD28 Fab (SEQ ID NOs: 696, 697) signal” value worked out at 0.9.

Turning to B33, the “Anti-CD28 Fab (SEQ ID NOs: 696, 697) signal” value came to 0.88.

On to B34, for which the “Anti-CD28 Fab (SEQ ID NOs: 696, 697) signal” value was 0.87.

For the molecule B35, the “Anti-CD28 Fab (SEQ ID NOs: 696, 697) signal” value turned out to be 0.87.

Consider B36, for which the “Anti-CD28 Fab (SEQ ID NOs: 696, 697) signal” value turned out to be 0.87.

As for B37, the “Anti-CD28 Fab (SEQ ID NOs: 696, 697) signal” value is 0.91.

For B38, the “Anti-CD28 Fab (SEQ ID NOs: 696, 697) signal” value was 0.9.

A further assay deals with T1, Anti-CD28 Fab (SEQ ID NOs: 696, 697). Briefly: phage binding ELISA on plate-captured anti-CD28 Fab pre-incubated with CD28 antigen as competitor.
Experimental: as §1, §2
As for B1, the “Anti-CD28 Fab signal in the presence of CD28 (phage binding ELISA)” value came out at 0.06.

On to B2, for which the “Anti-CD28 Fab signal in the presence of CD28 (phage binding ELISA)” value came to 0.08.

A further assay has as its target Anti-CD28 Fab (SEQ ID NOs: 696, 697). Briefly: phage ELISA; Fab on plate pre-incubated with CD28 antigen (competitor), clonal phage supernatant, anti-M13 HRP detection.
Target sequence in this assay (VH, as listed by the source, chain 1 of 2): as the sequence (VH, as listed by the source, chain 1 of 2) above
Target sequence in this assay (VL, as listed by the source, chain 2 of 2): as the sequence (VL, as listed by the source, chain 2 of 2) above
Experimental: as §1, §2
Take B16: the “Phage binding ELISA, Anti-CD28 Fab signal in the presence of CD28” value stood at 0.07.

Take B17: the “Phage binding ELISA, Anti-CD28 Fab signal in the presence of CD28” value amounted to 0.07.

As to B18, the “Phage binding ELISA, Anti-CD28 Fab signal in the presence of CD28” value came to 0.07.

B19: the “Phage binding ELISA, Anti-CD28 Fab signal in the presence of CD28” value came out at 0.06.

With B20, the “Phage binding ELISA, Anti-CD28 Fab signal in the presence of CD28” value is 0.06.

In the case of B21, the “Phage binding ELISA, Anti-CD28 Fab signal in the presence of CD28” value is 0.05.

As for B22, the “Phage binding ELISA, Anti-CD28 Fab signal in the presence of CD28” value was 0.06.

As to B23, the “Phage binding ELISA, Anti-CD28 Fab signal in the presence of CD28” value is 0.06.

As to B24, the “Phage binding ELISA, Anti-CD28 Fab signal in the presence of CD28” value is 0.07.

As for B25, the “Phage binding ELISA, Anti-CD28 Fab signal in the presence of CD28” value came to 0.06.

For the next assay the target is unchanged. Put plainly: phage binding ELISA; captured Fab pre-incubated with CD28 antigen as competitor, anti-M13 HRP.
Experimental: as §1, §2
For B26, the “Anti-CD28 Fab signal in the presence of CD28” value was 0.06.

On to B27, for which the “Anti-CD28 Fab signal in the presence of CD28” value stood at 0.07.

For the molecule B28, the “Anti-CD28 Fab signal in the presence of CD28” value came to 0.07.

For B29, the “Anti-CD28 Fab signal in the presence of CD28” value was 0.06.

Consider B30, for which the “Anti-CD28 Fab signal in the presence of CD28” value is 0.08.

Consider B31, for which the “Anti-CD28 Fab signal in the presence of CD28” value was found to be 0.06.

Consider B32, for which the “Anti-CD28 Fab signal in the presence of CD28” value came to 0.07.

For the molecule B33, the “Anti-CD28 Fab signal in the presence of CD28” value was 0.05.

As for B34, the “Anti-CD28 Fab signal in the presence of CD28” value amounted to 0.07.

Turning to B35, the “Anti-CD28 Fab signal in the presence of CD28” value is 0.07.

Consider B36, for which the “Anti-CD28 Fab signal in the presence of CD28” value was 0.06.

Turning to B37, the “Anti-CD28 Fab signal in the presence of CD28” value was determined as 0.07.

Regarding B38, the “Anti-CD28 Fab signal in the presence of CD28” value worked out at 0.09.
